From US20150344570A1 (published 2015)

T1: FcγRIIa R (FcγRIIa, allotype with Arg at position 131), extracellular domain with C-terminal His tag (human, UniProt P12318 34-217)
T1 construct: extracellular domain; also called FcγRIIa R type; 2aR
T1 sequence (looked up): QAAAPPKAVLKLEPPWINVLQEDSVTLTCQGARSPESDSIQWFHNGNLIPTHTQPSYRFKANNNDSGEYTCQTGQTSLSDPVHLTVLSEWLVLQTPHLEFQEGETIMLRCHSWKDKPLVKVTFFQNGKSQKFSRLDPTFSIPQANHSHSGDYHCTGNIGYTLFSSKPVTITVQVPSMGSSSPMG

B1: GpH7-A5/GpH7-B3 variant S337_04F/GpL16-k0 (antibody, human IgG1, kappa)
heavy 1: not shown
heavy 2: not shown
light: DIVMTQSPLSLPVTPGEPASISCQASESLVHSNRNTYLHWYLQKPGQSPQLLIYKVSNRFSGVPDRFSGSGSGTDFTLKISRVEAEDVGVYYCSQNTHVPPTFGQGTKVEIERTVAAPSVFIFPPSDEQLKSGTASVVCLLNNFYPREAKVQWKVDNALQSGNSQESVTEQDSKDSTYSLSSTLTLSKADYEKHKVYACEVTHQGLSSPVTKSFNRGEC
notes: also called He Ab
B2: GpH7-A5/GpH7-B3 variant S337_07I/GpL16-k0 (antibody, human IgG1, kappa)
heavy 1: not shown
heavy 2: not shown
light: B1 light
notes: also called He Ab
B3: GpH7-A5/GpH7-B3 variant T335_13S/GpL16-k0 (antibody, human IgG1, kappa)
heavy 1: not shown
heavy 2: not shown
light: B1 light
notes: also called He Ab
B4: GpH7-A5/GpH7-B3 variant S337_16H/GpL16-k0 (antibody, human IgG1, kappa)
heavy 1: not shown
heavy 2: not shown
light: B1 light
notes: also called He Ab
B5: GpH7-A5/GpH7-B3 variant T335_07I/GpL16-k0 (antibody, human IgG1, kappa)
heavy 1: not shown
heavy 2: not shown
light: B1 light
notes: also called He Ab
B6: GpH7-A5/GpH7-B3 variant Y296_06M/GpL16-k0 (antibody, human IgG1, kappa)
heavy 1: not shown
heavy 2: not shown
light: B1 light
notes: also called He Ab
B7: GpH7-A5/GpH7-B3 variant S337_12R/GpL16-k0 (antibody, human IgG1, kappa)
heavy 1: not shown
heavy 2: not shown
light: B1 light
notes: also called He Ab
B8: GpH7-A5/GpH7-B3 variant T335_15Y/GpL16-k0 (antibody, human IgG1, kappa)
heavy 1: not shown
heavy 2: not shown
light: B1 light
notes: also called He Ab
B9: GpH7-A5/GpH7-B3 variant T335_16H/GpL16-k0 (antibody, human IgG1, kappa)
heavy 1: not shown
heavy 2: not shown
light: B1 light
notes: also called He Ab
B10: GpH7-A5/GpH7-B3 variant S337_06M/GpL16-k0 (antibody, human IgG1, kappa)
heavy 1: not shown
heavy 2: not shown
light: B1 light
notes: also called He Ab
B11: GpH7-A5/GpH7-B3 variant T335_05P/GpL16-k0 (antibody, human IgG1, kappa)
heavy 1: not shown
heavy 2: not shown
light: B1 light
notes: also called He Ab
B12: GpH7-A5/GpH7-B3 variant S337_19Q/GpL16-k0 (antibody, human IgG1, kappa)
heavy 1: not shown
heavy 2: not shown
light: B1 light
notes: also called He Ab
B13: GpH7-A5/GpH7-B3 variant Y300_18N/GpL16-k0 (antibody, human IgG1, kappa)
heavy 1: not shown
heavy 2: not shown
light: B1 light
notes: also called He Ab
B14: GpH7-A5/GpH7-B3 variant T335_01G/GpL16-k0 (antibody, human IgG1, kappa)
heavy 1: not shown
heavy 2: not shown
light: B1 light
notes: also called He Ab
B15: GpH7-A5/GpH7-B3 variant Y296_14T/GpL16-k0 (antibody, human IgG1, kappa)
heavy 1: not shown
heavy 2: not shown
light: B1 light
notes: also called He Ab
B16: GpH7-A5/GpH7-B3 variant Y296_13S/GpL16-k0 (antibody, human IgG1, kappa)
heavy 1: not shown
heavy 2: not shown
light: B1 light
notes: also called He Ab
B17: GpH7-A5/GpH7-B3 variant T335_20W/GpL16-k0 (antibody, human IgG1, kappa)
heavy 1: not shown
heavy 2: not shown
light: B1 light
notes: also called He Ab
B18: GpH7-A5/GpH7-B3 variant T335_18N/GpL16-k0 (antibody, human IgG1, kappa)
heavy 1: not shown
heavy 2: not shown
light: B1 light
notes: also called He Ab
B19: GpH7-A5/GpH7-B3 variant T335_02A/GpL16-k0 (antibody, human IgG1, kappa)
heavy 1: not shown
heavy 2: not shown
light: B1 light
notes: also called He Ab
B20: GpH7-A5/GpH7-B3 variant V266_06M/GpL16-k0 (antibody, human IgG1, kappa)
heavy 1: not shown
heavy 2: not shown
light: B1 light
notes: also called He Ab
B21: GpH7-A5/GpH7-B3 variant S337_20W/GpL16-k0 (antibody, human IgG1, kappa)
heavy 1: not shown
heavy 2: not shown
light: B1 light
notes: also called He Ab
B22: GpH7-A5/GpH7-B3 variant T335_10E/GpL16-k0 (antibody, human IgG1, kappa)
heavy 1: not shown
heavy 2: not shown
light: B1 light
notes: also called He Ab
B23: GpH7-A5/GpH7-B3 variant S337_18N/GpL16-k0 (antibody, human IgG1, kappa)
heavy 1: not shown
heavy 2: not shown
light: B1 light
notes: also called He Ab
B24: GpH7-A5/GpH7-B3 variant T335_19Q/GpL16-k0 (antibody, human IgG1, kappa)
heavy 1: not shown
heavy 2: not shown
light: B1 light
notes: also called He Ab
B25: GpH7-A5/GpH7-B3 variant Y296_19Q/GpL16-k0 (antibody, human IgG1, kappa)
heavy 1: not shown
heavy 2: not shown
light: B1 light
notes: also called He Ab
B26: GpH7-A5/GpH7-B3 variant Y296_20W/GpL16-k0 (antibody, human IgG1, kappa)
heavy 1: not shown
heavy 2: not shown
light: B1 light
notes: also called He Ab
B27: GpH7-A5/GpH7-B3 variant S337_08L/GpL16-k0 (antibody, human IgG1, kappa)
heavy 1: not shown
heavy 2: not shown
light: B1 light
notes: also called He Ab

Biological target: T1, FcγRIIa R (FcγRIIa, allotype with Arg …)
Test: SPR (Biacore), antibody captured on antigen peptide chip, FcγR as analyte; relative binding

He/Con_2aR	Binder
105 % of GpH7-A5/GpH7-B3/GpL16-k0 (=100)	B1
109 % of GpH7-A5/GpH7-B3/GpL16-k0 (=100)	B2
110 % of GpH7-A5/GpH7-B3/GpL16-k0 (=100)	B3
109 % of GpH7-A5/GpH7-B3/GpL16-k0 (=100)	B4
109 % of GpH7-A5/GpH7-B3/GpL16-k0 (=100)	B5
101 % of GpH7-A5/GpH7-B3/GpL16-k0 (=100)	B6
107 % of GpH7-A5/GpH7-B3/GpL16-k0 (=100)	B7
111 % of GpH7-A5/GpH7-B3/GpL16-k0 (=100)	B8
108 % of GpH7-A5/GpH7-B3/GpL16-k0 (=100)	B9
105 % of GpH7-A5/GpH7-B3/GpL16-k0 (=100)	B10
104 % of GpH7-A5/GpH7-B3/GpL16-k0 (=100)	B11
106 % of GpH7-A5/GpH7-B3/GpL16-k0 (=100)	B12
100 % of GpH7-A5/GpH7-B3/GpL16-k0 (=100)	B13
104 % of GpH7-A5/GpH7-B3/GpL16-k0 (=100)	B14
103 % of GpH7-A5/GpH7-B3/GpL16-k0 (=100)	B15
102 % of GpH7-A5/GpH7-B3/GpL16-k0 (=100)	B16
109 % of GpH7-A5/GpH7-B3/GpL16-k0 (=100)	B17
106 % of GpH7-A5/GpH7-B3/GpL16-k0 (=100)	B18
102 % of GpH7-A5/GpH7-B3/GpL16-k0 (=100)	B19
150 % of GpH7-A5/GpH7-B3/GpL16-k0 (=100)	B20
110 % of GpH7-A5/GpH7-B3/GpL16-k0 (=100)	B21
111 % of GpH7-A5/GpH7-B3/GpL16-k0 (=100)	B22
107 % of GpH7-A5/GpH7-B3/GpL16-k0 (=100)	B23
106 % of GpH7-A5/GpH7-B3/GpL16-k0 (=100)	B24
102 % of GpH7-A5/GpH7-B3/GpL16-k0 (=100)	B25
110 % of GpH7-A5/GpH7-B3/GpL16-k0 (=100)	B26
107 % of GpH7-A5/GpH7-B3/GpL16-k0 (=100)	B27
